Protein production data for 22 sequences are collected here from a protein production outcome set (Wang et al. 2014).

This series is described as follows: label from the status in PepcDB records.
In the case of “MKVLILGGGYTGQRLAQLLAAQSIPVLATTRSGQWPLDEPCVTFDAGSTPLLLPDPAALAGVTHVLSTIPPLGDGGDPVLSTLLPTLQYLSLQWCGYLSTTGVYGDTQGAWVDEDSPLQSTNRRSQQRIAIEAQWLASGLPAHIFRLPGIYGPGRSSFDRLRRGDNQRLLKPGHVFCRIHVDDIAAALWASLQQPNPGRIYNVSDDFPCEPALLIEAAAQLMGVELPPPLPVDAVELSPMAASFWSECRRVRNDRLKQELGVQLRYPSYREGLAAIWAAELEHHHHHH”, the protein production result was “failed”. With “MAGSVGEETEPEWIKRVKLEGAVPCLKPDDNCKNGWTTPSPDTFMVRGPKYFSDKVKIPAGDFLLKPLGFDWIKGPKKLSEILSYPSSRIRKVIDEEFQKDGTKPFVWAFNLQLPHKDNYSAVAYFVTTEPILEGSLMDRFLKGDDGFKKSRLKLIANIVKGPWIVRKAVGEQAICVIGRALSCKYVSGENFVEIDVDIGSSMVASAIVHLAFGYVTTLTVDLAFLIESQTEAELPEKLLGAVRFSELQTESATSIELSSSTSNDQWDQTTSERSSWWKSIGNGFSNLLNQDTANMNNTSHGDIQKDEHVQKQ”, the protein production result is listed as “failed”. Turning to “MIIYNIVYPMILILLYEYLAVNYFKGDKSITSSYYYVIVLIPFFIFTNIITMAYVAKDESLSKTAYRFLSAPIDNSAIVLSKIISCTVISWGCSLILLIISKVLLSVNFEGSTLKILILFFTENFMAAAIGIFLGIVMKNFKTIKGILNIPISILGVLGGCFFPVGALGRTFEKVSYISPFTWINRGIISEVYDKSQTILVGTILVTLVFGIIFSIGASILFNKEVFL”, the protein production entry is “failed”. Take “MSNMQLDTLRRIVQEINSSVSLHDSLDIMVNQVADAMKVDVCSIYLLDERNQRYLLMASKGLNPESVGHVSLQLSEGLVGLVGQREEIVNLENASKHERFAYLPETGEEIYNSFLGVPVMYRRKVMGVLVVQNKQPQDFSEAAESFLVTLCAQLSGVIAHAHAVGNID”: the protein production result is “not failed”.

As for “MRAVIQRVKKSWVEVDGKVVGSINEGLNVFLGVRKGDTEEDIEKLVNKILNLRIFEDERGKFQYSVLDIKGEILVVSQFTLYANVKKGRRPSFEEAEEPKRAKELYEKFVDKIKESGLKVETGIFGAMMDVFIENWGPVTIIIDSREI”, the protein production result was “not failed”. Regarding “MVRLIFSDIDGTLINSNFKVTPKTRQGIKQIVAQGATFVPISARMPEAITPIMEQIGIDSYIISYNGALIQDMQQKTIASHTMDGQVALQVCSYVSKHYSKIAWNVYRYHEWYSCDKENEWVQKEEEIVGLQSKEMSLMELEKQDRIHKLLLMGEPSLMGELENTLKAQYPHLSIAQSAPYFIEIMAPGIEKGKSAKTLADYLDISLADSIAFGDNYNDLNLLEIVGKGFVMGNAPKDLQERIGNVTQDNDNDGIYYALVEYMEN”, the protein production entry is “failed”.

For “MKTITTFENKKVLVLGLARSGEAAARLLAKLGAIVTVNDGKPFDENPTAQSLLEEGIKVVCGSHPLELLDEDFCYMIKNPGIPYNNPMVKKALEKQIPVLTEVELAYLVSESQLIGITGSNGKTTTTTMIAEVLNAGGQRGLLAGNIGFPASEVVQAANDKDTLVMELSSFQLMGVKEFRPHIAVITNLMPTHLDYHGSFEDYVAAKWNIQNQMSSSDFLVLNFNQGISKELAKTTKATIVPFSTTEKVDGAYVQDKQLFYKGENIMSVDDIGVPGSHNVENALATIAVAKLAGISNQVIRETLSNFGGVKHRLQSLGKVHGISFYNDSKSTNILATQKALSGFDNTKVILIAGGLDRGNEFDELIPDITGLKHMVVLGESASRVKRAAQKAGVTYSDALDVRDAVHKAYEVAQQGDVILLSPANASWDMYKNFEVRGDEFIDTFESLRGE”, the protein production entry is “not failed”. Turning to “MGTNKQTALLPTVNQAITDGAVFGVSYSLLGPQENALHVIGYQGAGDDRLPLLPQARYDLASLTKVVGTTTRLLQLLIAGKLELTQPIGSLVSGLRYPQLTIEQLMLHRSGLPADVPDAHALDQAGLVHAVKTMAAVAAPDTETIYSDLNYIILGWAIAALDGDLATSLTQHIFAPLGMHATGYRPQHVAAADFVPTENVPARGGIIRGTVHDHKAFLLDGVSGHAGLFATLADLTIFTRLLAGLPVTNGDHVLPPAAFVLLDRFCKGGRTLGWRCWAQGRHQYWHTGFTGTSIAFDRDTQCGFVCLTNRIYPSRANRAWLAVRRQLLTQFFEVATSWPD”, the protein production result is given as “failed”. With “KMFFKVIDTLSDNYEKEMLLLEAEAKEQYYQELEKSSREVRKIKHDLKNMLLAICGKAKKQNEISEEIYKIIKELDESDKKIYTSNVVINTIINHKISQAKKLEIKTDVNIKVSKAIHIDYKDAGILLGNILDNAIEACEKIKKKERWIKIDMLHNKNTLFIEVCNSKGKELTNISKSSKSDAHNHGIGISSIKAITKKYDGYVEFVDKGEEFEVVVNLYGMSF”, the protein production entry is given as “failed”.

“MQMKKDFGYIRVGVASCELKVANPNYNVKSIISIMKKAYRRHHIKVLVFPELCVTGYTCGDLFNQNLLIKRAENELNNLLVSTSNINMITAVGMPVKADNQLFNCAVIINNGNILGVVPKTFIPTYNEFYEKRNFAGAISRISDEIILCGKKVPFGENLLFKDIYSELCIGIDICEDLWVNIPPSSYHTLNGANLILNLSASDEIVAKSDYRRDLVRLQSAKCITSYAYASSGQTESTSDLVFSGHSIIADNGSILKDIKFEEASYVKYADVDIEKLISDRIKFNTYMGRIEDKEYRTINFHLGYNENMHLERYVEASPFVPSNKSKRNIRCREILDLQASGLYQRLNKTGINKAVVGISGGLDSTLALLVIVEAFKKLKAPMKNIIGITMPGFGTTRRTYNNAVELMKKLGITIKEISIKKACIQHFNDIGQDLNTHDTIYENSQARERTQILMDIANKEGAIVVGTGDLSELALGWCTYNGDQMSMYGVNSSIPKTLVKYLIMWYAEASKDNDIRNILLDIYNTPVSPELLPPDKEGNIKQKTEDLIGSYELNDFFLYNMLRSGYEPLKILYLANIAFKDKYSEDVIHSALKNFYKRFFTQQFKRNCMPDGVKIGSVSLSPRGDLRMPSDASYGLWMDEL”: the protein production result was “failed”. On to “MEFLDWKFIFIIITFAFIGLICIFKRSKIGLTAASVGIIGSLILWGFFKVSIKVRNFLDGVGLSFKDLLNFLFVVITAIIAFLVIFLFLKAFNNFGSKIRKR”, for which the protein production result was “failed”.

Regarding “MARRDISGAVDFAYLEGFAAGDFAVVDEVLALFREQAALWAPMLDPTHPGWKDAVHTVKGAARGVGAFNLGEVCERCEAGQESLEGVRTALDAALLDIAAYAHEQALRSLKG”, the protein production entry was “not failed”. With “MRDFLVRYFPTFMLTVLLGCFSASLLLSLAGTTYWRAMAPPQRDEYLLFGLLVLIPLLVLGNLLIVRGISRAVWLVAGYFVACLLGVVPMFQYHPHQGVYLFGVLLPLLGLLLLNSKRHREMRERLLQIRQQRQRFKQQRKRG”, the protein production entry is recorded as “failed”.

As to “MSVMYKKILYPTDFSETAEIALKHVKAFKTLKAEEVILLHVIDEREIKKRDIFSLLLGVAGLNKSVEEFENELKNKLTEEAKNKMENIKKELEDVGFKVKDIIVVGIPHEEIVKIAEDEGVDIIIMGSHGKTNLKEILLGSVTENVIKKSNKPVLVVKRKNS”, the protein production result is “not failed”. As for “MKVLRLGIVFQLLFVLLLTVGNFARIFIIDHYSVYPIAFFELFLGIGSLSCGVYGLIKTEKPILSLWLICFGLLICVFFIVVYLLPEGDIPPEITWFYSE”, the entry is “failed”; as for “MLTDRELLILEEIVREYTENGQPIGSKTLMNNLPVKVSSATIRNDMAKLEEMGLIEKMHSSSGRIPSLMGYRYYVDHLLSPKKLNQSEAQQIQKGLGMHFREVDDIVRTSAEMLSNLTHYTALTLKPDQKDATLDGFRMVPLGGNQVMLILVSSNGDVTSQQFSIPRGMNSETVERVLRIMNDRLIGETLDQVYYHLKTDIPKIVEHYLHSNDGIIDIFENVVAQSSQDRYFIGGKLNILNFSKNVDVSSIRGLLTLFNENDQLDGLLGNNQSDLDVKIGDELSNALLKDFSLITATYDVGSRGKGLIAILGPTSMQYSKTLGLLDTFRDQLSNRMLEYYKHLDDS”, “failed”; as for “MSLRLKKLQKIVPYSPLKSLKIWHLFCVVRLCSIVVTSMTAGKTPTHFTTQPLNRVLGETSGAFADLGTFLPLVLGLIALNQFSPQGIFLGFGVFAILSALFYRRPMPVQPMKVIAALVIAQGLTPGMLQASAMLMGIILLILAFSGAITWLAKQLSQAVSVGIQLAIGLQLMWMGAKMMSDFWLLGLGAFALLFASKFLPLRYLAMPLVIAAGMIWQANSQTDMATSLSIPALSASLHLAWPTLNEWSSAAILLVLPQLALTLTNAVIATSVMAQEKFPEDAAKLTPKNLAISSGLANLLLAPFGAAAMCHGAGGLAVQYHFGARTHLAPLIFGGTCLVIALFWDSQMAWLLGLIPVAILGSLLSIGGLQLAWSKRLIDGKPFCIFVILSTAVTCLAINAAAGLAVGIILEQGRRTWAMLAMR”, “failed”.

On to “DGQPVAMGDVGELVIGGVGLARYLDPVKDREKFSAELGWERAYRSGDHVRLCEDGLYFVGRIDDQVKIGGRRIELGEVEAHVAALPNVAQYAVVVRETAAGEKVLVAYVSPQVPDVDIDTSALDELPRAMVPRLVVLPEIPTTTSGKADKKALPWPLESAQVTGSDFTPTQQWLAQLWVDVLGVPVGDVD”, for which the protein production entry is listed as “failed”.

Take “MSLESLFQHIIFTEHQAEESRRLMREVRSEITRCREKIKKATEELNEEKIKLESKVQQFFEKSFFLQLLKAHENALEKQYSEITNHRNMLLQTFEAIKKQMIEEEDKFIKEITDFNNDYEITKKRELLMKENVKIEISDLENQANMLKSEMKSMEHDSSQLNELQKQKSELIQELFTLQRKLKVFEDEENESICTTKYLEAEKIKISEKPQNDTECLRLKKELELYKEDDMESVYEALQTEIEFLELTLAQKDLQESK”: the protein production entry is “failed”. As for “MKIAVLGTGTVGRTMAGALADLGHEVTIGTRDPKATLARAEPDAMGAPPFSQWLPEHPHVHLAAFADVAAGAELVVNATEGASSIAALTAAGAENLAGKILVDIANPLDFSHGMPPTLNPVNTDSLGEQIQRTFPEAKVVKTLNTMNASLMVDPGRAAGGDHSVFVSGNDAAAKAEVATLLKSLGHQDVIDLGDITTARGAEMLLPVWIRLWGALGTANFNFKIAR”, the entry is “not failed”; as for “MLTNVVAVLLDGVHPFELGVVCEVFGIDRSDEGLPVYEFAVASAEGPTLRTHAGFSLRTEHGLERLETADLITLPAGNSYVSRGYPPELLDALRRAVDRGARLLSVCSGVFVLGAAGLLDGRRCAVHWHHADELARQYPKAIVEPDVLYVDEDPVITSAGTAAGIDACLHIVRKEQGPEVANAIARRMVVPPHRDGGQAQYIERPLPRSPCDTVGEVLVWMEQHLDEEVTVEQLAARAHMSPRTFARRFQQETGTTPYRWILRQRVLLAQRLLEVTDETMDAIAGRTGFGTAAALRHQFVRSLGTTPNAYRRTFRGPATGPLGLAG”, “failed”. As to “MAELQMLLEEEIPGGRRALFDSYTNLERVADYCENNYIQSADKQRALEETKAYTTQSLASVAYLINTLANNVLQMLDIQASQLRRMESSINHISQTVDIHKEKVARREIGILTTNKNTSRTHKIIAPANLERPVRYIRKPIDYTILDDIGHGVKVSTQNMKMGGLPRTTPPTQKPPSPPMSGKGTLGRHSPYRTLEPVRPPVVPNDYVPSPTRNMAPSQQSPVRTASVNQRNRTYSSSGSSGGSHPSSRSSSRENSGSGSVGVPIAVPTPSPPSVFPGHPVQFYSMNRPASRHTPPTIGGSLPYRRPPSITSQTSLQNQMNGGPFYSQNPVSLAPPPPSILQVTPQLPLMGFVARVQENISDTPPPPPPVEEPVFDESPPPPPPPEDYEEEEAAVVEYSDPYAEEDPPWAPRSYLEKVVAIYDYTKDKEDELSFQEGAIIYVIKKNDDGWYEGVMNGVTGLFPGNYVESIMHYSE”, the protein production entry is recorded as “not failed”.
